Columns and labels:
[1] = target: T1, human TIM-3 extracellular domain-human IgG1 Fc fusion protein (human, UniProt Q8TDQ0 22-199); assay: ELISA
T1 construct: Made in house or bought (ACROBiosystems TM3-H5258); also called TIM-3-hFc; not shown: human IgG1 Fc
Method: Goat-anti-hFc (Jackson, 109-005-008) was diluted to a concentration of 1 μg/ml with PBS buffer (pH 7.4) and added to a 96-well microplate (Corning, CLS3590-100EA) at a volume of 50 μl/well, then incubated in an incubator at 37° C. for 2 hours (Or the antigen TIM-3 was directly used to coat the microplate with a concentration of 0.5 μg/ml, and then the antibody to be tested was directly added). After discarding the liquid, a blocking solution of 5% skimmed milk (skimmed milk powder purchased from Bright) diluted with PBS was added at 200 μl per well, and the microplate was incubated for 2.5 hours at 37° C. or overnight (16-18 hours) at 4° C. for blocking. The blocking solution was discarded, and the microplate was washed 5 times with PBST buffer (PBS with pH 7.4 containing 0.05% tween-20), then 50 μl/well of 0.5 μg/ml TIM-3-hFc (Example 1) was added and incubated for 2 hours in a 37° C. incubator. After incubation, the microplate was washed 6 times with PB ST. 50 μl/well of supernatant (containing testing antibody) or different concentrations of the antibody to be tested was added, and the microplate was incubated at 37° C. for 2 hours and washed 5 times with PBST. 50 μl/well of 1:2500 diluted HRP-labeled secondary antibody (Jackson Immuno Research, 115-035-003) was added to the microplate, incubating at 37° C. for 1 hour. After washing the microplate 5 times with PBST, 50 μl/well TMB chromogenic substrate (KPL, 52-00-03) was added to the microplate, followed by incubating at room temperature for 10-15 min.
(§1) The above-mentioned TIM-3 and PD-1 bispecific antibodies of the present invention were optimized and designed using the methods of Example 2 and Example 5, and their affinity for TIM-3 and PD-1 were tested respectively.

[2] = target: T2, human PD-1 extracellular domain protein expressed in Example 1 (tag not stated) (human, UniProt Q15116 25-170); assay: ELISA, PD-1 coated
T2 construct: extracellular domain; also called PD-1 protein; not shown: human IgG1 Fc or his tag
Method: PD-1 expressed in Example 1 was diluted to a concentration of 1 μg/ml with PBS buffer, pH 7.4, and added to a 96-well microplate (Corning, CLS3590-100EA) at 50 μl per well, thereby incubating in an incubator at 37° C. for 2 hours. After discarding the liquid, a blocking solution of 5% skimmed milk (Shanghai Shenggong Biological Engineering Co., Ltd., A600669-0250) diluted with PBS was added at 200 μl per well, followed by incubating at 37° C. for 3 hours or 4° C. overnight (16-18 hours)) for blocking. Subsequently, the blocking solution was discarded, and the microplate was washed 5 times with PBST buffer (pH 7.4 PBS containing 0.05% tween-20). […] Subsequently, the microplate was washed 5 times with PBST, then 50 μl/well of 1:2500 diluted HRP-labeled secondary antibody (Jackson Immuno Research, 115-035-003) was added, thereby incubating at 37° C. for 1 hour. After washing the microplate 5 times with PBST, 50 μl/well TMB chromogenic substrate (KPL, 52-00-03) was added, then incubated at room temperature for 5-10 min. Finally, 50 μl/well of 1M H₂SO₄ was added to stop the reaction. […] Go microplate reader (ThermoFisher, 51119200) was used to read the absorption value at 450 nm and the EC50 based on the OD value was calculated.
as §1

[3] = target: T1, human TIM-3 extracellular domain-human …; assay: ELISA; PBS, 37°C 7 days
[4] = target: T2, human PD-1 extracellular domain protein …; assay: ELISA; PBS, 37°C 7 days
[5] = target: T1, human TIM-3 extracellular domain-human …; assay: ELISA; PBS, 37°C 7 days, against 0 day
[6] = target: T2, human PD-1 extracellular domain protein …; assay: ELISA; PBS, 37°C 7 days, against 0 day
[7] = target: T1, human TIM-3 extracellular domain-human …; assay: ELISA; PBS, 37°C 14 days, against 0 day
[8] = target: T2, human PD-1 extracellular domain protein …; assay: ELISA; PBS, 37°C 14 days, against 0 day
[9] = target: T1, human TIM-3 extracellular domain-human …; assay: ELISA; pH 5.5, 40°C 5 days, against 0 day
[10] = target: T2, human PD-1 extracellular domain protein …; assay: ELISA; pH 5.5, 40°C 5 days, against 0 day
[11] = target: T1, human TIM-3 extracellular domain-human …; assay: ELISA; PBS, 37°C 14 days (degraded sample)
[12] = target: T2, human PD-1 extracellular domain protein …; assay: ELISA; PBS, 37°C 14 days (degraded sample)
[13] = target: T1, human TIM-3 extracellular domain-human …; assay: ELISA; pH 5.5, 37°C 10 days, against 0 day
[14] = target: T2, human PD-1 extracellular domain protein …; assay: ELISA; pH 5.5, 37°C 10 days, against 0 day
[15] = target: T1, human TIM-3 extracellular domain-human …; assay: ELISA, EC50 of bispecific over EC50 of the monoclonal control
[16] = target: T2, human PD-1 extracellular domain protein …; assay: double-sandwich ELISA: PD-1 coated, LB141 titrated, detected with Bio-TIM-3-his and streptavidin-HRP
Method: After discarding the liquid, 200 μl/well of blocking solution of 5% skimmed milk (Sangon Biotech (Shanghai) Co., Ltd., A600669-0250) diluted with PBS was added, and the microplate was placed at 4° C. overnight (16-18 hours) for blocking. After discarding the blocking solution, the microplate was washed 5 times with PBST buffer (pH 7.4 PBS containing 0.05% tween-20). […] Followed by washing the plate 5 times with PBST, 50 μl/well of 1 μg/ml Bio-TIM-3-his (ACROBiosystems, TM-H5229) was added and incubated at 37° C. for 1 hour. Then the microplate was washed 5 times with PBST again, and 50 μl/well 1:1000 diluted streptavidin-HRP secondary antibody (Nanjing Genscript Biotech Corporation, M00091) was added and incubated at 37° C. for 1 hour. After washing the microplate 5 times with PBST, 50 μDwell TMB chromogenic substrate (KPL, 52-00-03) was added and incubated at room temperature for 5-10 min.

EC50 [1]: 0.081 nM
EC50 [2]: 0.052 nM
EC50 [3]: 0.325 nM
EC50 [4]: 0.339 nM
Fold change of EC50 [5]: 1.28 ratio
Fold change of EC50 [6]: 1.16 ratio
Fold change of EC50 [7]: 2.71 ratio
Fold change of EC50 [8]: 1.37 ratio
Fold change of EC50 [9]: 0.95 ratio
Fold change of EC50 [10]: 1.1 ratio
EC50 [11]: 0.685 nM
EC50 [12]: 0.4 nM
Fold change of EC50 [13]: 0.85 ratio
Fold change of EC50 [14]: 1.1 ratio
Multiple of EC50 variation [15]: 0.83 ratio
EC50 [16]: 0.816 nM
B1: bispecific antibody LB141 (bispecific antibody, human IgG4 S228P, kappa)
light: EIVLTQSPATLSLSPGERATLSCRASKGVSTSGYSYLHWYQQKPGQAPRLLIYLASYLESGVPARFSGSGSGTDFTLTISSLEPEDFAVYYCQHSRDLPLTFGGGTKVEIKRTVAAPSVFIFPPSDEQLKSGTASVVCLLNNFYPREAKVQWKVDNALQSGNSQESVTEQDSKDSTYSLSSTLTLSKADYEKHKVYACEVTHQGLSSPVTKSFNRGEC
heavy: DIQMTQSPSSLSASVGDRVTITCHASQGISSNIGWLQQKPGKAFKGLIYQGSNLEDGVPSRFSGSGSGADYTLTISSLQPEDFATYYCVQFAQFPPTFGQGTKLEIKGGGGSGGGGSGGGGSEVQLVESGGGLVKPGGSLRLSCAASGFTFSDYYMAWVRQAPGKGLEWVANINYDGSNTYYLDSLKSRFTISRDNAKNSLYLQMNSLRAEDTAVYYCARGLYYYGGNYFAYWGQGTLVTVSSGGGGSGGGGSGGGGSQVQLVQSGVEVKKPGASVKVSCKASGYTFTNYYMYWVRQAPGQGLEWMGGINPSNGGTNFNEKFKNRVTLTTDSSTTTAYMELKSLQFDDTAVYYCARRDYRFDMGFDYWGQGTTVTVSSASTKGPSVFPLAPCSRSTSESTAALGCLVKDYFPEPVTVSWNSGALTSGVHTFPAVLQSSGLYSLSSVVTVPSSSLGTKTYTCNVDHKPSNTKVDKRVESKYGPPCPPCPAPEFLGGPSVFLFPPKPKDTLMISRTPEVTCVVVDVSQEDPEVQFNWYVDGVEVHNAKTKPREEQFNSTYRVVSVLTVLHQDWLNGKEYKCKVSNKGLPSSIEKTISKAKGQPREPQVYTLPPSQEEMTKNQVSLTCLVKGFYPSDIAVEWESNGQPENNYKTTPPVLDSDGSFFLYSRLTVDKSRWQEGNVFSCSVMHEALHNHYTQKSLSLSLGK
notes: ab6VL-(G4S)3-ab6VH-(G4S)3-PemVH-hIgG4 with PemVL-κ

Reference: patent US20210269521A1 (L AND L BIOPHARMA, published 2021)
